Test results taken from patent publication US20260070974A1 (NONA BIOSCIENCES SUZHOU, published 2026).
Numbering of substitutions follows the chain as printed.

T1: human Siglec-15 ECD-his protein (Acrobiosystems, Cat #: SG5-H52H3) (human, UniProt Q6ZMC9 20-263)
T1 construct: Bought protein; only its extracellular domain stood in the assay; also called human Siglec-15 protein; recombinant human Siglec-15 protein; not shown: his tag
T1 sequence: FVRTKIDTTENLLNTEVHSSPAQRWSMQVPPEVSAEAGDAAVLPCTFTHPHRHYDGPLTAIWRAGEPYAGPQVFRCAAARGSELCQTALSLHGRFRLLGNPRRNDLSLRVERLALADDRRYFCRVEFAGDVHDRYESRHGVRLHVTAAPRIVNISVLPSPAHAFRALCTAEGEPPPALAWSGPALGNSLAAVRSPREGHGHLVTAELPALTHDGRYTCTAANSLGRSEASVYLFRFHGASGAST

T2: human Siglec-15 on CHO-K1/human Siglec-15 cells (KYinno, Beijing) (human, UniProt Q6ZMC9 20-328)
T2 sequence: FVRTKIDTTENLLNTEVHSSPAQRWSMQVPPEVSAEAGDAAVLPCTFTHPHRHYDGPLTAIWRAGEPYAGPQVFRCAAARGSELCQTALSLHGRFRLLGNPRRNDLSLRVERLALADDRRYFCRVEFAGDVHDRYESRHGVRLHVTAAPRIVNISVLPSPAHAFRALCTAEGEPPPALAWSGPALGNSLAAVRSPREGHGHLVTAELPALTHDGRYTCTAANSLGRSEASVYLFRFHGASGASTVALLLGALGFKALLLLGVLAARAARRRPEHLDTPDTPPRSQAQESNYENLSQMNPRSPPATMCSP

T3: cynomolgus monkey Siglec-15 on CHO-K1/cynomolgus monkey Siglec-15 cells (cynomolgus monkey, UniProt Q6ZMC9 20-328 (human entry))
T3 chain: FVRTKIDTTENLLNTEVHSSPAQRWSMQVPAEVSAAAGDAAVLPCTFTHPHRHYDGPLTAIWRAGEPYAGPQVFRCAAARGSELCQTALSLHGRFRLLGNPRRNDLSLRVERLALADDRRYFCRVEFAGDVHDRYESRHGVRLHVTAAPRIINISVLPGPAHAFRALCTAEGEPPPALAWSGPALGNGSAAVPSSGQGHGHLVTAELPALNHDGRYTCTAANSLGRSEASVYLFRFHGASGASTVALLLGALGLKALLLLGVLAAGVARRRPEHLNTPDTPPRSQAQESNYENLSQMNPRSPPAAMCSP

B1: PR301289-1 (antibody, human IgG1, kappa, V domains shown)
VH: QVQLVQSGAEVKKPGASVKVSCRASGYTFTSYDINWVRQATGQGLEWMGWMNPHSGDTGYAQNFQGRVTMTWQTSISTAYMELSSLRSEDTAVYYCARRRVGVYYYGMDVWGQGTTVTVSS
VL: ENVLTQSPGTLSLSPGERATLSCRASQSVSSSYFGWYQQKPGQAPRLLIYGASSRATGIPDRFSGSGSGTDFTLTISRLEPEDFAVYYCQQYGSSPITFGQGTRLEIKR
notes: PTM variant of PR301289: HFR3 N/Q; human IgG1/kappa
B2: PR301289-2 (antibody, human IgG1, kappa, V domains shown)
VH: B1 VH with Y106H
VL: B1 VL
notes: PTM variant of PR301289: HFR3 N/Q; CDRH3 YYY/YYH; human IgG1/kappa
B3: PR301286-1 (antibody, human IgG1, kappa, V domains shown)
VH: QVQLVESGGGVVQPGKSLRLSCAASGFTFSSYGMHWVRQAPGKGLEWVAVIWIDASNRYYAASVKGRFTISRDNSKNTLYLQMNSLRAEDTAVYYCTRGYGDYAYVMDVWGQGASVTVSS
VL: DIVMTQSPLSLPVTPGEPASISCRSSQSLLPGNGYNYLDWYLQKPGQSPQLLIYLGSNRASGVPDRFSGSGSGTDFTLKISRVEAEDVGIYYCMQALQSPLTFGGGTKVEIKR
notes: PTM variant of PR301286: VH(HCDR2) G/A; human IgG1/kappa
B4: PR301286-6 (antibody, human IgG1, kappa, V domains shown)
VH: B3 VH
VL: B3 VL with G34A
notes: PTM variant of PR301286: VH(HCDR2) G/A; VL(LCDR1) G/A; human IgG1/kappa
B5: PR301286-5 (antibody, human IgG1, kappa, V domains shown)
VH: B3 VH
VL: B3 VL with N33S
notes: PTM variant of PR301286: VH(HCDR2) G/A; VL(LCDR1) N/S; human IgG1/kappa
B6: PR301286-7 (antibody, human IgG1, kappa, V domains shown)
VH: B3 VH
VL: B3 VL with G34T
notes: PTM variant of PR301286: VH(HCDR2) G/A; VL(LCDR1) G/T; human IgG1/kappa
B7: PR301286-3 (antibody, human IgG1, kappa, V domains shown)
VH: B3 VH with A55V
VL: B3 VL
notes: PTM variant of PR301286: VH(HCDR2) G/V; human IgG1/kappa
B8: PR300679 (antibody, human IgG1, kappa, V domains shown)
VH: QVQLQESGPGLVKPSGTLSLTCAVSGGSISSSNWWSWVRQPPGKGLEWIGEIYHSGSTNYNPSLKSRVTISVDKSKNQFSLKLSSVTAADTAVYYCAREYSSSWLSVMDAWGQGASVTVSS
VL: not shown

Molecular target: T1, human Siglec-15 ECD-his protein …
Test: ELISA, coated human Siglec-15 ECD-his
Description: […] human Siglec-15 ECD-his protein (Acrobiosystems, Cat #: SG5-H52H3) dissolved in PBS was added to an ELISA plate at 100 μL/well for coating and the plate was incubated overnight at 4° C. The ELISA plate was then blocked with PBST (PBS+0.05% Tween 20) containing 2% BSA at 200 μL/well and incubated at 37° C. for 1 h. The ELISA plate was washed 4 times with PBST. The anti-Siglec-15 antibody diluted in a gradient (5-fold dilution, starting concentration: 6.67 nM) was added to the ELISA plate at 100 μL/well and the plate was incubated at 37° C. for 1 h. The ELISA plate was washed 4 times with PBST. The goat anti-human IgG (H+L)-HRP (1:5000, Jackson, Cat #: 109-035-088) was added at 100 μL/well and the plate was incubated at 37° C. for 1 h. The ELISA plate was washed 4 times with PBST. The TMB substrate (Biopanda, Cat #: TMB-S-003) was added at 100 μL/well, and the plate was incubated at room temperature for 5 min, and then the stop buffer (Solarbio, Cat #: C1058) was added at 100 μL/well to stop the reaction.

Row | EC50 | Binder
1 | 0.02 nM | B1
2 | 0.029 nM | B2
3 | 0.019 nM | B3
4 | 0.029 nM | B4
5 | 0.02 nM | B5
6 | 0.025 nM | B6
7 | 0.019 nM | B7

Molecular target: T2, human Siglec-15 on CHO-K1/human …
Test: flow cytometry on CHO-K1/human Siglec-15 cells
Description: (§1) CHO-K1/human Siglec-15 cells (KYinno, Beijing) were adjusted to a density of 1×10⁶/mL with PBS, and the cell suspension was added to a 96-well V-bottom plate at 100 μL/well. The 96-well V-bottom plate was centrifuged at 1000 rpm for 5 min and washed once with PBS+2% FBS. The cells were resuspended in 100 L of antibody diluted in a gradient (5-fold dilution, starting concentration: 500 nM) and incubated at 4° C. for 1 h, and PR300066 and hIgG1 were used as positive control and negative control, respectively. After 1 h, the cells were washed twice with PBS+2% FBS. The cells were incubated with 100 μL of Alexa Fluor 488 goat anti-human IgG (Jackson, Cat #: 109-545-098) at 4° C. for 1 h in the dark and then washed twice with PBS+2% FBS. The cells were then resuspended in 200 μL of PBS+2% FBS. The fluorescence intensity of the cells was analyzed using a BD FACSCanto™ II flow cytometer.

Row | EC50 | Maximum (MFI) | Binder
8 | 1.03 nM | 25300 MFI | B8
9 | 1.26 nM | 28800 MFI | B2
10 | 1.81 nM | 24400 MFI | B5

Molecular target: T3, cynomolgus monkey Siglec-15 on …
Test: flow cytometry on CHO-K1/cynomolgus monkey Siglec-15 cells
Description: as §1, with “cDNAs encoding cynomolgus monkey Siglec-15 (the amino acid sequence of which is set forth in SEQ ID NO: 155) were obtained by gene synthesis and cloned into the expression vector pcDNA3.1, and then the expression vector was transfected into CHO-K1 cells to construct CHO-K1/cynomolgus monkey Siglec-15” for “CHO-K1/human Siglec-15”, “cells expressing cynomolgus monkey Siglec-15. CHO-K1/cynomolgus monkey Siglec-15 cells” for “cells (KYinno, Beijing)”, “100 µL/well.” for “100 μL/well.”, “100 μL” for “100 L”, “BD FACS Canto™” for “BD FACSCanto™”

Row | EC50 | Maximum (MFI) | Binder
11 | 1.34 nM | 4420 MFI | B2
12 | 5.26 nM | 4280 MFI | B5

Molecular target: T1, human Siglec-15 ECD-his protein …
Test: BLI (Octet RED96), antibody on AHC sensor, Siglec-15 ECD-his as analyte
Description: Recombinant Human Siglec-15 Protein Affinity was determined using an Octet RED96 instrument (ForteBio) and an anti-human IgG Fc capture sensor (AHC biosensor, ForteBio, Cat #: 18-5060) according to the detailed procedures and methods provided by the manufacturer. Specifically, candidate antibodies were each diluted to a final concentration of 6 µg/mL and directly immobilized on AHC biosensors for kinetic measurements. The antigenic protein Siglec-15 ECD-his protein (Acrobiosystems, Cat #: SG5-H52H3) was diluted with 10× Kinetics buffer to 3 concentrations of 60 nM, 30 nM, and 15 nM separately and injected as the analyte for 120 s with a dissociation time of 400 s and then subjected to regeneration with 10 mM glycine HCl (pH 1.5) for 15 s. The association rate (kon) and dissociation rate (kdis) were calculated using a simple one-to-one Languir binding model (Octet Red96 data analysis software). The equilibrium dissociation constant (kD) was calculated as the ratio of kdis/kon.

Row | Kd | koff | kon | Binder
13 | 0.106 nM | 0.000102 s⁻¹ | 968000 M⁻¹ s⁻¹ | B8
14 | 0.116 nM | 3.89e-05 s⁻¹ | 337000 M⁻¹ s⁻¹ | B1
15 | 0.19 nM | 5.96e-05 s⁻¹ | 314000 M⁻¹ s⁻¹ | B2
16 | 0.0162 nM | 3.85e-06 s⁻¹ | 238000 M⁻¹ s⁻¹ | B3
17 | 0.279 nM | 0.000107 s⁻¹ | 384000 M⁻¹ s⁻¹ | B4
18 | 0.137 nM | 4.93e-05 s⁻¹ | 360000 M⁻¹ s⁻¹ | B5
19 | 0.361 nM | 0.000137 s⁻¹ | 379000 M⁻¹ s⁻¹ | B6
20 | 0.195 nM | 6.44e-05 s⁻¹ | 330000 M⁻¹ s⁻¹ | B7
